Laboratory results from publication PMC5027281 (Nature Communications, 2016).
Where a chain is given by its changes, count along the chain named.

B1: 3I14-GL IgG1 (VH and VL germline versions) (antibody, V domains shown)
VH: QVQLVESGGGVVQPGRSLRLSCAASGFTFSSYGMHWVRQAPGKGLEWVAVISYDGSNKYYADSVKGRFTISRDNSKNTLYLQMNSLRAEDTAVYYCAKLPSPYYYDSRFVWVAASYFDYWGQGTLVTVSS
VL: not shown
B2: 3I14-gHmL IgG1 (germline heavy chain, mature light chain) (antibody, V domains shown)
VH: B1 VH
VL: NFMLTQPPSASGTPGQRVTISCSGSSSNIGGNTVHWFQQLPGTAPKLLIYTNSLRPSGVPDRFSGSKSGTSASLAISGLQSEDEADYYCAAWDDSLNGQVFGGGTKLTVL
B3: 3I14-mHgL IgG1 (mature heavy chain, germline light chain) (antibody, V domains shown)
VH: QVQLLESGGGVVQPGRSLRLSCAASGFTFSNYGMHWVRQAPGKGLEWVAIISFDGSKKYYANSVKGRSTISRDNSKNTLSLQMNSLGPEDTALYYCAKLPSPYYFDSRFVWVAASAFHFWGQGILVTVSS
VL: not shown
B4: 3I14 VLD94N variant IgG1 (antibody, V domains shown)
VH: B3 VH
VL: B2 VL with D94N

Columns and labels:
[1] = molecular target: T1, Recombinant full-length HA of A/Perth/16/09 (H3-PE09) (influenza A virus A/Perth/16/09); test: BLI; settings: both partners purified
[2] = molecular target: T1, Recombinant full-length HA of …; test: BLI; settings: both partners purified; remark: listed apart in the source

Row | Binder | Kd [1] | koff [1] | kon [1] | Kd [2] | koff [2] | kon [2]
1 | B1 | 4.02 nM | 0.000556 s⁻¹ | 139000 M⁻¹ s⁻¹ |  |  | 
2 | B2 | 0.733 nM | 0.000125 s⁻¹ | 171000 M⁻¹ s⁻¹ |  |  | 
3 | B3 | 0.658 nM | 0.000126 s⁻¹ | 192000 M⁻¹ s⁻¹ |  |  | 
4 | B4 |  |  |  | 0.308 nM | 5.44e-05 s⁻¹ | 177000 M⁻¹ s⁻¹
